{"source": "paper PMC3396432", "biological_target": "Cav1(62-178) P132L (UniProt Q03135)", "test": "AUC"}
{"substance": "Cav1(62-178) P132L (from UniProt Q03135 62-178) (domain or fragment)", "values": [{"measurement": "Kd", "value": "< 15", "unit": "nM"}, {"measurement": "stoichiometry N", "value": 2}]}
